Measured values taken from patent publication US20220380463A1 (Adimab, published 2022).
Numbering of substitutions follows the chain as printed.

B1: SAD10318_P01_A02 (ADI-48581) (antibody, V domains shown)
VH: QVQLVQSGAEVKKPGASVKVSCKASGFNIKDYYMHWVRQAPGQRLEWMGWIDLENANTIYDAKFQGRVTITRDTSASTAYMELSSLRSEDTAVYYCARDAYHHYFYDVWGQGTLVTVSS
VL: DIVMTQSPDSLAVSLGERATINCKSSQSLLNARTHKNHLAWYQQKPGQPPKLLIYWASTRESGVPDRFSGSGSGTDFTLTISSLQAEDVAVYYCKQSYHHRTFGGGTKVEIK
notes: IgG; also called Ab237
B2: SAD10318_P01_H03 (ADI-48591) (antibody, V domains shown)
VH: B1 VH with R98H, H102G
VL: B1 VL with H35G, K36H, H38Y, S71R
notes: IgG; also called Ab102
B3: SAD10318_P02_H05 (ADI-48599) (antibody, V domains shown)
VH: B1 VH with H102G, Y104H
VL: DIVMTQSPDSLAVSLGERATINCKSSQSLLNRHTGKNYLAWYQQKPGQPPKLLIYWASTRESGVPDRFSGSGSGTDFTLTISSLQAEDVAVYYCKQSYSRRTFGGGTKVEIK
notes: IgG; also called Ab185
B4: SAD10318_P02_B05 (ADI-48596) (antibody, V domains shown)
VH: B1 VH with H102G, H103R, Y104H, V108H
VL: B1 VL with R33H, H35G, H38Y, H99S, H100R
notes: IgG; also called Ab179
B5: SAD10318_P02_G06 (ADI-48600) (antibody, V domains shown)
VH: B1 VH with R98H, H102G
VL: B1 VL with N31H, A32T, H35G, H38Y, H99S, H100R
notes: IgG; also called Ab189
B6: SAD10318_P01_F03 (ADI-48589) (antibody, V domains shown)
VH: B1 VH with Y101H, H102G, H103R, V108H
VL: B1 VL with R33H, H35G, K36H, H38Y, H99S
notes: IgG; also called Ab80
B7: SAD10318_P02_H04 (ADI-48594) (antibody, V domains shown)
VH: B1 VH with H103R, V108H
VL: B1 VL with N31H, H35G, K36H, H38Y, H99S, H100R
notes: IgG; also called Ab169
B8: SAD10318_P01_C01 (ADI-48575) (antibody, V domains shown)
VH: B1 VH with H103R, F105H
VL: B1 VL with R33H, H38Y, Y98H, H99S
notes: IgG; also called Ab113
B9: SAD10318_P01_B01 (ADI-48574) (antibody, V domains shown)
VH: B1 VH with H102G, H103R, F105H, V108H
VL: B1 VL with R33H, H35G, K36H, H38Y, H99S, H100R
notes: IgG; also called Ab2
B10: SAD10318_P01_G02 (ADI-48586) (antibody, V domains shown)
VH: B1 VH
VL: B1 VL with H35G, H99S
notes: IgG; also called Ab25
B11: SAD10318_P01_A03 (ADI-48587) (antibody, V domains shown)
VH: B1 VH with A100H, H103R
VL: B1 VL with H35G, K36H, H38Y, Y98H, H99S
notes: IgG; also called Ab36
B12: SAD10318_P02_D05 (ADI-48598) (antibody, V domains shown)
VH: B1 VH with A100H, H102G
VL: B1 VL with H35G
notes: IgG; also called Ab181
B13: SAD10318_P01_B02 (ADI-48582) (antibody, V domains shown)
VH: B1 VH with A100H, H103R
VL: B1 VL with H35G, K36H, Y98H, H99S
notes: IgG; also called Ab248
B14: SAD10318_P02_G04 (ADI-48593) (antibody, V domains shown)
VH: B1 VH with H102G, F105H
VL: B1 VL with N31H, H35G, H38Y
notes: IgG; also called Ab158
B15: SAD10318_P02_C04 (ADI-48592) (antibody, V domains shown)
VH: B1 VH with K13E, Y101H, H103R
VL: B1 VL with R33H, H35G, K36H, H38Y, H99S, H100R
notes: IgG; also called Ab125
B16: SAD10318_P01_D01 (ADI-48576) (antibody, V domains shown)
VH: B1 VH with H103R, V108H
VL: B1 VL with R33H, H35G, Y98H, H99S
notes: IgG; also called Ab182
B17: SAD10318_P01_D02 (ADI-48584) (antibody, V domains shown)
VH: B1 VH with Y101H, H103R
VL: B1 VL with H35G, Y98H, H99S
notes: IgG; also called Ab3
B18: SAD10318_P02_A05 (ADI-48595) (antibody, V domains shown)
VH: B1 VH with A9T, H103R, V108H
VL: B1 VL with A32S, R33H, H35G, H38Y, H99S, H100R
notes: IgG; also called Ab178
B19: SAD10318_P01_D03 (ADI-48588) (antibody, V domains shown)
VH: B1 VH with A100H, H102G
VL: B1 VL with R33H, H35G, K36H, H38Y, Y98H, H99S
notes: IgG; also called Ab58
B20: SAD10318_P01_F02 (ADI-48585) (antibody, V domains shown)
VH: B1 VH with Y101H, H102G
VL: B1 VL with R33H, H35G, Y98H, H99S
notes: IgG; also called Ab14
B21: SAD10318_P01_G03 (ADI-48590) (antibody, V domains shown)
VH: B1 VH with R98H, H102G
VL: B1 VL with R33H, H35G, K36H, H38Y
notes: IgG; also called Ab91
B22: SAD10318_P01_E01 (ADI-48577) (antibody, V domains shown)
VH: B1 VH with Y101H, H103R
VL: B1 VL with R33H, T34E, H35G, H38Y, Y98H, H99S
notes: IgG; also called Ab193
B23: SAD10318_P01_F01 (ADI-48578) (antibody, V domains shown)
VH: B1 VH with H102G, V108H
VL: B1 VL with R33H, H35G
notes: IgG; also called Ab204
B24: SAD10318_P01_H01 (ADI-48580) (antibody, V domains shown)
VH: B1 VH with Y101H, H103R
VL: B1 VL with R33H, H35G
notes: IgG; also called Ab226
B25: SAD10318_P01_G01 (ADI-48579) (antibody, V domains shown)
VH: B1 VH with Y101H, H102G
VL: B1 VL with N31H, R33H, H35G, H38Y, Y98H, H99S
notes: IgG; also called Ab215

biological target: T1, human CD3 on CD3+ Jurkat cells (human, UniProt P07766 23-207); experiment: flow cytometry, 100 nM IgG on CD3+ Jurkat cells, pH 6.0
T1 construct: whole, on cells; Native CD3 complex on cells; the other CD3 chains are not specified for this assay; also called Human CD3+ Jurkat
T1 sequence (P07766 23-207): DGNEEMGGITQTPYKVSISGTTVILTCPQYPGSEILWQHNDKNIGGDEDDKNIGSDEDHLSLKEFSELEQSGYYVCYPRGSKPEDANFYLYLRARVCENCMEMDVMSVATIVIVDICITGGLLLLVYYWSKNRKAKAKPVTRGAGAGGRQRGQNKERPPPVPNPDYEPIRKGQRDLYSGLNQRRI
Protocol: (§1) Specificity of the anti-CD3 antibodies for human CD3+ Jurkat cells compared to CHO-S cells at pH 6.0 and 7.4 was determined using a FACS cell binding assay. Briefly, CD3+ human Jurkat cells and CHO-S cells were thawed and washed with cold PBSF buffer, pH 7.4 (PBS+0.1% BSA, pH 7.4). About 200,000 cells were aliquoted per well of a 96-well plate and pelleted by centrifugation (5 minutes at 500×g). The cells were washed with either PBSF pH 7.4 or PBSF pH 6.0 (PBS+0.1% BSA, pH 6.0), and then resuspended in 100 ul in either PBSF pH 7.4 or PBSF pH 6.0 with IgG antibody produced in yeast (100 nM). The mixture (cells+antibody) was incubated for 20 minutes on ice, then washed twice with either PBSF pH 7.4 or PBSF pH 6.0. Cells were resuspended in 50 ul of propidium iodide (1:500 dilution) and anti-human IgG-RPE (1:100 dilution) prepared in either PBSF pH 7.4 or PBSF pH 6.0, then incubated for 20 minutes on ice in the dark before cells were washed twice with either PBSF pH 7.4 or PBSF pH 6.0. Binding was analyzed on FACS Canto II.
(§2) Cell binding assays. CD3+ human Jurkat cells (ATCC) and CHO-S cells (Invitrogen/ThermoFisher) were thawed and washed with cold PBSF buffer, pH 7.4 (PBS+0.1% BSA, pH 7.4). About 200,000 cells were aliquoted per well of a 96-well plate (FACS Assay Plate VWR BD 353263) and pelleted by centrifugation (5 minutes at 500×g). The cells were washed with either PBSF pH 7.4 or PBSF pH 6.0 (PBS+0.1% BSA, pH 6.0), and then resuspended in 100 ul in either PBSF pH 7.4 or PBSF pH 6.0 with IgG antibody (100 nM) produced in yeast as described above. The mixture (cells+antibody) was incubated for 20 minutes on ice, then washed twice with either PBSF pH 7.4 or PBSF pH 6.0. Cells were resuspended in 50 ul of propidium iodide (Roche; 1:500 dilution) and anti-human IgG-RPE (Southern Biotech; 1:100 dilution) prepared in either PBSF pH 7.4 or PBSF pH 6.0, then incubated for 20 minutes on ice in the dark before cells were washed twice with either PBSF pH 7.4 or PBSF pH 6.0. Binding was analyzed on FACS Canto II.

| Binder | MFI pH 6.0 [MFI] |
| --- | --- |
| B1 | 1730 |
| B2 | 4430 |
| B3 | 1320 |
| B4 | 500 |
| B5 | 2900 |
| B6 | 5240 |
| B7 | 4260 |
| B8 | 3110 |
| B9 | 3550 |
| B10 | 1090 |
| B11 | 5120 |
| B12 | 279 |
| B13 | 326 |
| B14 | 3780 |
| B15 | 5810 |
| B16 | 849 |
| B17 | 2180 |
| B18 | 5980 |
| B19 | 4940 |
| B20 | 381 |
| B21 | 1950 |
| B22 | 5370 |
| B23 | 418 |
| B24 | 933 |
| B25 | 2070 |

biological target: T1, human CD3 on CD3+ Jurkat cells; experiment: flow cytometry, 100 nM IgG on CD3+ Jurkat cells, pH 7.4
Protocol: as §1, §2

| Binder | MFI pH 7.4 [MFI] |
| --- | --- |
| B1 | 38 |
| B2 | 140 |
| B3 | 583 |
| B4 | 828 |
| B5 | 1340 |
| B6 | 475 |
| B7 | 1320 |
| B8 | 81 |
| B9 | 150 |
| B10 | 45 |
| B11 | 66 |
| B12 | 33 |
| B13 | 36 |
| B14 | 96 |
| B15 | 2990 |
| B16 | 42 |
| B17 | 91 |
| B18 | 4960 |
| B19 | 59 |
| B20 | 45 |
| B21 | 32 |
| B22 | 73 |
| B23 | 36 |
| B24 | 41 |
| B25 | 306 |

biological target: T1, human CD3 on CD3+ Jurkat cells; experiment: flow cytometry on CD3+ Jurkat cells, ratio of MFI at pH 6.0 to pH 7.4
Protocol: as §1, §2

| Binder | MFI pH 6.0/MFI pH 7.4 |
| --- | --- |
| B1 | 45.5 |
| B2 | 31.6 |
| B3 | 2.3 |
| B4 | 0.6 |
| B5 | 2.2 |
| B6 | 11 |
| B7 | 3.2 |
| B8 | 38.4 |
| B9 | 23.7 |
| B10 | 24.3 |
| B11 | 77.1 |
| B12 | 8.6 |
| B13 | 9 |
| B14 | 39.4 |
| B15 | 1.9 |
| B16 | 20.1 |
| B17 | 23.9 |
| B18 | 1.2 |
| B19 | 83.3 |
| B20 | 8.5 |
| B21 | 60.3 |
| B22 | 73.1 |
| B23 | 11.7 |
| B24 | 22.5 |
| B25 | 6.8 |
